By Kd is commonly meant a measure of binding affinity in units of concentration. A low value points to higher affinity.

Data set [1] deals with T1, tyrosyl-DNA phosphodiesterase 1 (Tdp1) (Homo sapiens, UniProt Q9NUW8 1-608). The data set can be described thus: SPR.
Data set [2] addresses T1, tyrosyl-DNA phosphodiesterase 1 (Tdp1). The data set is described as follows: fluorescence anisotropy. A general note: In fluorescence polarisation assays a small probe gives low polarisation when free and higher when bound to something large.
Data set [3] has the same target. The data set can be described thus: competition.
Data set [4] has the same target. The data set is described as follows: SPR. The source holds these as a separate data set. (In general: In SPR one partner is held on a chip, and binding of the other changes the refractive index at the surface.)
For data set [5] the target is unchanged. The data set can be described thus: fluorescence anisotropy. This is another data set of the same source.

T1 sequence (Q9NUW8 whole entry): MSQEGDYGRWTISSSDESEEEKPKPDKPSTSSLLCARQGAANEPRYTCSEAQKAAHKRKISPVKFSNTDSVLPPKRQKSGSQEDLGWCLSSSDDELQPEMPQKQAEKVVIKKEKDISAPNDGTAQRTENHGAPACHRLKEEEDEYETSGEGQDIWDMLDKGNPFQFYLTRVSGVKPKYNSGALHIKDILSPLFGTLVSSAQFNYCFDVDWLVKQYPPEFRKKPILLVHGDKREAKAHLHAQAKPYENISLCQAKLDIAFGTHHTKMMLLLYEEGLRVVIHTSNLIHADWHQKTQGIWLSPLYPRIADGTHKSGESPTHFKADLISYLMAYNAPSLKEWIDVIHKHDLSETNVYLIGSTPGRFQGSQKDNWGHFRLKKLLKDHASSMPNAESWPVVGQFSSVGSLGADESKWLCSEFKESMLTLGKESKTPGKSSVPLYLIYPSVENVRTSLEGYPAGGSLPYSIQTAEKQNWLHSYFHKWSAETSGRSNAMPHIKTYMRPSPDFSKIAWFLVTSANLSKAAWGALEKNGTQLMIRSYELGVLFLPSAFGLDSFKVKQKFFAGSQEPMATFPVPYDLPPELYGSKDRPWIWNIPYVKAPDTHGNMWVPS

GATCTAAAAGACTT (ssDNA, 5'-biotin; 3'-phosphate) [B14p] registered a Kd in data set [1] of 57 nM.
In turn, GATCTAAAAGACTTG (ssDNA, 3'-6-FAM via phosphorothioate (non-hydrolyzable)) [15(pS)F] came in with a Kd in data set [2] of 2.4 nM.
GATCTAAAAGACTTG (ssDNA, 5'-6-FAM via phosphodiester; 3'-OH) [F15]: the Kd in data set [2] came to 39.2 nM.
GATCTAAAAGACTT (ssDNA, 5'-6-FAM via phosphodiester; 3'-phosphate) [F14p] had a Kd in data set [2] of 34.1 nM.
Turning to AAGATCTAAAAGACTTAAGGATCTAAAAGACTTGAAGATCTAAAAGACTT (ssDNA, 3'-phosphate) [50p], the binding signal in data set [3] was ~10 fold higher affinity than 14p.
For GATCTAAAAGACTT (ssDNA, 5'-phosphate; 3'-biotin) [p14B], the binding result in data set [4] is “no binding”.
For the molecule GATCTAAAAGACTT (ssDNA, 5'-6-FAM via phosphodiester; 3'-OH) [F14], in data set [5], binding was put at a Kd of 76.9 nM.
Take GATCTAAAAGACTTG (ssDNA, 5'-6-FAM via phosphorothioate; 3'-OH) [F(pS)15]: in data set [2], the Kd is 26.3 nM.

Values taken from publication PMC2853120.
